B1: LINE1-mini (parent)
chain: GGCAGAGCUCAACACAGCGUGGCAAAGUGGCUGUGGCUAGACUGCC

Variants of: B1
Assay: self-cleavage, relative activity (ratio to wild type); higher = more cleavage; in vitro, sequencing; the parent is a self-cleaving ribozyme

| Variant | self-cleavage |
| --- | --- |
| U9A G29U | 0.15 |
| C18G U20G | 0.41 |
| G7U U43C | 0.18 |
| G17C G44U | 0.07 |
| A12U C46A | 0.27 |
| G1A C15U | 1.02 |
| G2C U43A | 0.04 |
| C13G C31U | 0.13 |
| G27C U32C | 0.12 |
| U20C G40U | 0.1 |
| G5C C8A | 0.18 |
| G27A U38A | 0.28 |
| U28A U43A | 0.11 |
| A11G C18A | 0.04 |
| A14G A16C | 0.08 |
| C42G G44A | 0.12 |
| G5U U20A | 0.06 |
| A39G G44A | 0.16 |
| U32A G33C | 0.08 |
| G7C G29A | 0.13 |
| G1A G36U | 0.1 |
| A12G C42A | 0.05 |
| G17U G27A | 0.38 |
| G1U G44A | 0.11 |

| Variant | self-cleavage |
| --- | --- |
| G1U G33U | 0.06 |
| A24C C42U | 0.13 |
| G19U G35C | 0.09 |
| A11C A41U | 0.04 |
| U32G C46U | 0.17 |
| G5U A26U | 0.09 |
| G7A A26G | 0.24 |
| G30U U32G | 0.08 |
| G36C C42A | 0.05 |
| A4C G7C | 0.17 |
| A14U G19U | 0.62 |
| G19A A26U | 1.89 |
| A26U C46U | 2.38 |
| U34A C45G | 0.15 |
| A14C C15U | 0.07 |
| A14G G36C | 0.07 |
| G5A G30A | 0.22 |
| C18A U32A | 0.05 |
| G5A A16C | 0.1 |
| G5A A16U | 0.07 |
| U20G G40A | 0.06 |
| A16C C31G | 0.03 |
| G17U U28C | 1.16 |
| C8G A39C | 0.17 |

| Variant | self-cleavage |
| --- | --- |
| A12G A25C | 0.16 |
| A25U G27A | 0.59 |
| G19C G40A | 0.06 |
| G19C G40C | 0.06 |
| G19U C31U | 0.44 |
| C18A G44U | 0.08 |
| A11C A14U | 0.03 |
| A12G C13U | 0.06 |
| C31G U38C | 0.07 |
| G5U A6C | 0.16 |
| G29C C46G | 0.52 |
| G1A U32A | 0.09 |
| A4C A26U | 0.11 |
| C10G G19A | 0.1 |
| A6C G21C | 0.42 |
| C15A G40A | 0.04 |
| A26U G35A | 0.24 |
| A24U C42G | 0.06 |
| A6G U28G | 0.09 |
| C31A U43A | 0.08 |
| C15A G29U | 0.12 |
| A12U C31A | 0.04 |
| G27C C31U | 0.07 |
| U20G G44C | 0.26 |

| Variant | self-cleavage |
| --- | --- |
| A41G C42A | 0.12 |
| G36A G40C | 0.27 |
| A25U U43C | 0.1 |
| G19C G30A | 0.91 |
| C23G C37G | 0.01 |
| G30U C31A | 0.19 |
| U20C G33A | 0.1 |
| A16G U20G | 0.16 |
| G2U C18A | 0.03 |
| G22C G33C | 0.06 |
| A14C G36A | 0.15 |
| U20G U28A | 0.17 |
| A26G C42A | 0.08 |
| G19U G30U | 1.11 |
| G7A U38A | 0.09 |
| G5C A11G | 0.05 |
| U28C U32G | 0.3 |
| G5U C31U | 0.06 |
| A4G U9A | 0.21 |
| C18G G22A | 0.82 |
| G22A A24U | 0.75 |
| A12C C13A | 0.08 |
| C13A C46G | 0.06 |
| A14G C46U | 0.26 |

| Variant | self-cleavage |
| --- | --- |
| G5U U43A | 0.08 |
| G1A G7A | 0.51 |
| A12U G29A | 0.31 |
| G19U U32G | 0.1 |
| A25G C31U | 0.13 |
| C8U G36C | 0.27 |
| C37U C46A | 0.07 |
| A16C C37G | 0.02 |
| U28A G30U | 0.77 |
| G40C G44C | 0.06 |
| C13U G21U | 0.18 |
| G7U U9A | 0.23 |
| G7U U9G | 0.09 |
| A12G A24C | 0.02 |
| C13A G21A | 0.23 |
| C23G U34A | 0.09 |
| G7C G40U | 0.26 |
| A11U A12G | 0.03 |
| U20C U28A | 0.93 |
| G1A C31G | 0.11 |
| A12C U32A | 0.03 |
| A25U C42A | 0.24 |
| A16G G36A | 0.53 |
| G5U U28C | 0.09 |

| Variant | self-cleavage |
| --- | --- |
| G2C C37G | 0.05 |
| G40U C42G | 0.08 |
| A6U A41U | 0.09 |
| G22A G27C | 0.9 |
| G1C G40U | 0.02 |
| A11G U43G | 0 |
| A24C G44C | 0.47 |
| G21U G44C | 0.25 |
| A4C A16C | 0.04 |
| G29A C46G | 0.74 |
| C15G U43C | 0.03 |
| G22C C23G | 0.28 |
| G2C U32G | 0.02 |
| G19U G40C | 0.05 |
| G5U U9C | 0.05 |
| U20A C37U | 0.05 |
| G21A G44C | 0.52 |
| G2A C8G | 0.13 |
| C37U G40U | 0.16 |
| A4G U34C | 0.12 |
| A11U C31U | 0.1 |
| C13A C37G | 0.05 |
| G30A C46G | 1.5 |
| A14U U43C | 0.07 |

| Variant | self-cleavage |
| --- | --- |
| A12G U38G | 0.02 |
| A6C C46A | 0.5 |
| A39G A41G | 0.01 |
| G21C U34C | 0.19 |
| C31U G36A | 0.12 |
| A14G C37G | 0.04 |
| A4U A26U | 0.2 |
| C10G G36U | 0.02 |
| G2U G35C | 0.05 |
| A4C G17C | 0.08 |
| G7U U38A | 0.04 |
| A14C C18A | 0.05 |
| A14C C18G | 0.05 |
| C8A G17C | 0.22 |
| G29A U43G | 0.04 |
| U32G G44A | 0.08 |
| G33C C46G | 0.05 |
| C15U U20A | 0.92 |
| C10G A12C | 0.03 |
| G2A U38G | 0.05 |
| U28C A39C | 0.1 |
| A4C U38C | 0.12 |
| C8G A16U | 0.06 |

From the RNAGym collection of RNA variant scans (doi:10.7554/elife.90254)
